Measured values published in publication PMC8081927 (The Journal of Biological Chemistry, 2021).
“And” between values parts separate entries of the source, which are not always exact repeats. Identical values can stand only once. One block for each binder: values may come before it.

Tests used:
Aβ2-42 fibrils = target: T1, Aβ2-42 fibrils (Homo sapiens (species , …, UniProt P05067)); assay: far-Western, overlay or dot blot; immunodot blot: fibrils of Aβ1-42 and N-terminal truncations spotted on nitrocellulose at equal Thioflavin T fluorescence; antibodies at 10 nM in PBST with 1% milk; anti-human Fc HRP, 3 min exposure; conditions: both partners purified
T1 construct: amyloid beta peptide with N-terminal deletion, Aβ2-42; Amyloid fibrils; also called fibrils without the first residue; source: synthetic peptide, bought: Bachem; assembled into fibrils, purified by ultracentrifugation

Aβ3-42 fibrils = target: T2, Aβ3-42 fibrils (Homo sapiens (species , …, UniProt P05067)); assay: as above; conditions: both partners purified
T2 construct: amyloid beta peptide with N-terminal deletion, Aβ3-42; Amyloid fibrils; also called fibrils without the first two residues; source: synthetic peptide, bought: Bachem; assembled into fibrils, purified by ultracentrifugation

Aβ4-42 fibrils = target: T3, Aβ4-42 fibrils (Homo sapiens (species , …, UniProt P05067)); assay: as above; conditions: both partners purified
T3 construct: amyloid beta peptide with N-terminal deletion, Aβ4-42; Amyloid fibrils; source: synthetic peptide, bought: Bachem; assembled into fibrils, purified by ultracentrifugation

Aβ5-42 fibrils = target: T4, Aβ5-42 fibrils (Homo sapiens (species , …, UniProt P05067)); assay: as above; conditions: both partners purified
T4 construct: amyloid beta peptide with N-terminal deletion, Aβ5-42; Amyloid fibrils; source: synthetic peptide, bought: Bachem; assembled into fibrils, purified by ultracentrifugation

Aβ11-42 fibrils = target: T5, Aβ11-42 fibrils (Homo sapiens (species , …, UniProt P05067)); assay: as above; conditions: both partners purified
T5 construct: amyloid beta peptide with N-terminal deletion, Aβ11-42; Amyloid fibrils; source: synthetic peptide, bought: Anaspec; assembled into fibrils, purified by ultracentrifugation
T5 chain: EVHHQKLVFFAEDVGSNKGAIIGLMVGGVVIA

Aβ1-42 fibrils [1] = target: T6, Aβ1-42 fibrils (Homo sapiens (species , …, UniProt P05067, biotin on 1% of the peptides in the fibrils for the bead assays; unlabeled fibrils on the blots); assay: flow cytometry on beads; Aβ fibrils (1% biotinylated, 1 μM) immobilised on streptavidin Dynabeads, blocked with 10% milk; antibody dilutions in PBSB with 1% milk, 3 h, 25 °C; detected with goat anti-human Fc AF647; apparent affinity (EC50); conditions: both partners purified
T6 construct: amyloid beta peptide 1-42 (Aβ1-42), cut product of the amyloid precursor protein; also called Aβ fibrils; Aβ42 fibrils; source: synthetic peptide, bought: Anaspec; assembled into fibrils at 37 °C with 10% fibril seeds, purified by ultracentrifugation

[2] = target: T7, Aβ aggregates formed in vivo in 5xFAD transgenic mouse brain (human); assay: far-Western, overlay or dot blot; immunodot blot: brain extracts (7 μg total protein) of 5xFAD and wild-type mice spotted on nitrocellulose; antibodies at 50 nM in TBST with 1% milk, overnight, 4 °C; conditions: one partner purified
T7 construct: Aβ derived from human amyloid precursor protein (APP) expressed in 5xFAD mice; the APP transgene carries the Swedish (K670N/M671L), Florida (I716V) and London (V717I) mutations; The target stands in a brain homogenate or tissue section, not as a pure peptide; also called 5xFAD samples; Aβ plaques

Aβ1-42 fibrils [3] = target: T6, Aβ1-42 fibrils; assay: far-Western, overlay or dot blot; immunodot blot: disaggregated Aβ and fibrils of Aβ, IAPP and α-synuclein spotted on nitrocellulose; antibodies at 10 nM in PBST with 1% milk, room temperature, 3 h; anti-human Fc HRP, X-ray film, 30 s or 45 min exposure; conditions: both partners purified
disaggregated Aβ1-42 = target: T8, disaggregated Aβ1-42 (Homo sapiens (species , …, UniProt P05067)); assay: as above; conditions: both partners purified
T8 construct: amyloid beta peptide 1-42 (Aβ1-42), cut product of the amyloid precursor protein; also called disaggregated (D) Aβ; disaggregated Aβ42; source: synthetic peptide, bought: Anaspec; dissolved in HFIP, then 50 mM NaOH, ultracentrifuged, neutralised

B1: crenezumab (variable domains grafted onto an IgG1 scaffold with a human Fc fragment) (antibody, V domains shown)
VH: EVQLVESGGGLVQPGGSLRLSCAASGFTFSSYGMSWVRQAPGKGLELVASINSNGGSTYYPDSVKGRFTISRDNAKNSLYLQMNSLRAEDTAVYYCASGDYWGQGTTVTVSS
VL: DIVMTQSPLSLPVTPGEPASISCRSSQSLVYSNGDTYLHWYLQKPGQSPQLLIYKVSNRFSGVPDRFSGSGSGTDFTLKISRVEAEDVGVYYCSQSTHVPWTFGQGTKVEIK
notes: heavy-chain variable domain of crenezumab; light-chain variable domain of crenezumab; IgG1 here; source: HEK293-6E expression plasmids, transfected cells, purified from the medium (Protein A)
binding result (Aβ2-42 fibrils): binds
binding result (Aβ3-42 fibrils): binds
binding result (Aβ4-42 fibrils): binds
binding result (Aβ5-42 fibrils): binds
binding result (Aβ11-42 fibrils): binds

B4: clone 97 (scFv, V domains shown)
VH: EVQLVESGGGLVQPGGSLRLSCAASGFNIKDTYIHWVRQAPGKGLEWVARIYPASGATRYADSVKGRFTISADTSKNTAYLQMNSLRAEDTAVYYCARDGYDGSYFVGYDYNDFYDYWGQGTLVTVSS
VL: DIQMTQSPSSLSASVGDRVTITCRASQNVAYAVTWYQQKPGKAPKLLIYSASFLYSGVPSRFSGSRSGTDFTLTISSLQPEDFATYYCQQHSTYPPTFGQGTKVEIK
notes: scFv-Fc fusion protein; Parent of 97A3; source: HEK293-6E expression plasmids, transfected cells, purified from the medium (Protein A)
EC50 (Aβ1-42 fibrils [1]): 8 nM and 18 nM

Other lines, results leading:

EC50 (Aβ1-42 fibrils [1]): 99 nM
B2: AF1 (scFv, V domains shown)
VH: EVQLVESGGGLVQPGGSLRLSCAASGFNIKDTYIHWVRQAPGKGLEWVARIYPTNGYTRYADSVKGRFTISADTSKNTAYLQMNSLRAEDTAVYYCARDGYDGSYFVGYDYNDFYDYWGQGTLVTVSS
VL: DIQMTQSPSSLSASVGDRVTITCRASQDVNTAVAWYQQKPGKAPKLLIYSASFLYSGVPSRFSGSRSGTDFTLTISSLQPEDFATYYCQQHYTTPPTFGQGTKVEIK
notes: scFv-Fc fusion protein; also called lead antibody; parental antibody; source: HEK293-6E expression plasmids, transfected cells, purified from the medium (Protein A)

binding result [2]: binds
binding result (Aβ1-42 fibrils [3]): binds
binding result (disaggregated Aβ1-42): binds
B3: clone 93 (scFv, V domains shown)
VH: EVQLVESGGGLVQPGGSLRLSCAASGFNIKDTYIHWVRQAPGKGLEWVARIYPSNGYTRYAGSVKGRFTISADTSKNTAYLQMNSLRAEDTAVYYCARDGYDGSYFVGYDYNDFYDYWGQGTLVTVSS
VL: DIQMTQSPSSLSASVGDRVTITCRASQNVYNAVTWYQQKPGKAPKLLIYSASFLYSGVPSRFSGSRSGTDFTLTISSLQPEDFATYYCQQHNTYPPTFGQGTKVEIK
notes: scFv-Fc fusion protein; source: HEK293-6E expression plasmids, transfected cells, purified from the medium (Protein A)
